The values below come from the supplement of paper PMC9170038.

For this series, the system named is MS2 coat protein. Kind of series: apparent KD of MS2 coat protein; designed switch direction (-1 OFF switch, 1 ON switch): -1; higher = weaker reporter binding. The method in brief: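 An oligonucleotide input, 200 uM small-molecule ligand, or no input was present during titration of SNAP-549-labelled MS2 coat protein, which was doubled from 0.7 or 1.5 nM to 3 µM. Designed RNA switches had been transcribed on Illumina chips by stalled E. coli RNA polymerase. Apparent KD per design is the median over clusters of curves fitted to normalised cluster fluorescence.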

Where [1] appears, read: input ligand: microRNA oligo, concentration not stated.
Setting [2] is: Eterna round: R95, input ligand: microRNA oligo, concentration not stated.
Where [3] appears, read: Eterna round: R95, input ligand: FMN 200 uM.
Where [4] appears, read: Eterna round: R95, input ligand: none.

For “AGGCGGAAAGUAAGGAUAUCUUGACCAAAGGGUUGAGAGAAGGUACAUGAGGAUCACCCAUGUGUUUACCGCCA [Shrinking Claw (Vienna2)] (Eterna round: R97, puzzle: Brourd's mod of Exclusion 4)”, the “apparent KD of MS2 coat protein” value runs as follows: (input ligand: FMN 200 uM) 12.4 nM; (input ligand: none) 12.9 nM.
Consider “AGGGACGGCUGAGGAUAUAUGUAGAGUGAGAUAGUAGAAGGCAGACAUGAGGAUCACCCAUGUAUCGGUCCUCAUAUCUCGUAU [Default title] (Eterna round: R96, puzzle: Exclusion NG 1)”, for which the “apparent KD of MS2 coat protein” value by setting is: (input ligand: FMN 200 uM) 14.3 nM; under setting [1], 15.9 nM; (input ligand: none) 17.7 nM.
On to “AGGUAACAUGAGGAUCACCCAUGUCAGGAUAUCAUGAAGAUUAGAUUAGAGGAGAGGUUGAGAAGGGACUAUAU [Excluse me! 16 - Jieux - Exclusion 1] (puzzle: Exclusion 1)”, for which the “apparent KD of MS2 coat protein” value under setting [2] turned out to be 45.4 nM.
For “AGGUCACAUGAGGAUCACCCAUGUCAGGAUAUCGUCACUGGAGCUUCGGCUCCAGUGACGAGAAGGGACAAUUA [E1/6-A1] (Eterna round: R97, puzzle: Exclusion 1)”, the “apparent KD of MS2 coat protein” value was 499 nM (input ligand: FMN 200 uM) and 80.5 nM (input ligand: none).
In the case of “AGGUGCUUCUGGAGACAUGAGGAUCACCCAUGUUGAGUUAGCGAGGAUAUCGGUAACCAUUGUUAUGAGAAGGCGCAAACCAGA [Ex NG3 #40] (Eterna round: R96, puzzle: Exclusion NG 3)”, the “apparent KD of MS2 coat protein” value by setting is: (input ligand: FMN 200 uM) 22.9 nM; under setting [1], 10.5 nM; (input ligand: none) 27.8 nM.
Take “AGGUGUAGAGGAUAUCUCUUCUCUCACAUGAGGAUCACCCAUGUCCUAAAGACCAAGGAGAGAGAAGGCUACACCA [Omei Ex5 D6] (Eterna round: R97, puzzle: Exclusion 5)”: the “apparent KD of MS2 coat protein” value came to 42 nM (input ligand: FMN 200 uM) and 41.8 nM (input ligand: none).
The matching figures for “AGGUGUAGAGGAUAUCUCUUCUCUCACAUGAGGAUCACCCAUGUCCUGGGUACCUGGGAGAGAGAAGGCUACACCA [Omei Ex5 D12] (Eterna round: R97, puzzle: Exclusion 5)”: 1060 nM and 2460 nM.
For the sequence “AGGUGUAGGUAAGGAUAUAUCUAAAACCACAUGAGGAUCACCCAUGUAGCGGGUAUCUUCGUGAGAUAGAAGGUGCACGCCGAA [Atbiasori] (Eterna round: R96, puzzle: Exclusion NG 2)”, the “apparent KD of MS2 coat protein” value is 494 nM (input ligand: FMN 200 uM), 269 nM under setting [1] and 308 nM (input ligand: none).
“AGGUUGGCGUGAGGAUAUUGGAAAGGAAGUGUACAAGAAGGUACGGACCUAAAACAUGAGGAUCACCCAUGUGGUCCUUAUGCC [PowerStrip EXNG 1.26] (Eterna round: R96, puzzle: Exclusion NG 1)”: the “apparent KD of MS2 coat protein” value runs as follows: (input ligand: FMN 200 uM) 14 nM; under setting [1], 11.2 nM; (input ligand: none) 19.6 nM.
As to “AGUAACCGUCACGAAAGUGAUGGUUACACAAGCAUAUGUACAUGAGGAUCACCCAUGUCCUCAAUUGCUCGUCUUAU [Sensor 3 - 54] (puzzle: Sensor v3, turn-off variant 2)”, the “apparent KD of MS2 coat protein” value runs as follows: under setting [3], 167 nM; under setting [2], 250 nM; under setting [4], 226 nM.
With “AGUAACCGUCACGAAAGUGAUGGUUACACAAGUAAUGAAACAUGAGGAUCACCCAUGUCCUCAUUUGCUCGUCUUAU [Sensor 3 - 39] (puzzle: Sensor v3, turn-off variant 2)”, the “apparent KD of MS2 coat protein” value was determined as 354 nM under setting [3], 362 nM under setting [2] and 350 nM under setting [4].
The matching figures for “AGUAACCGUCACGAAAGUGAUGGUUACAUAAGCAUAUGUACAUGAGGAUCACCCAUGUCCUCAACUGCUCGUUUUAU [Sensor 3 - 56] (puzzle: Sensor v3, turn-off variant 2)”: 292 nM, 612 nM and 349 nM.
For “AGUAACUAUCACGAAAGUGAUAGUUACAAACAAGUGAAAACAUGAGGAUCACCCAUGUCCUCAUUUGCUCGUCUUAU [Sensor 3 - 7] (puzzle: Sensor v3, turn-off variant 2)” the same measures were 182 nM, 884 nM and 329 nM.
The matching figures for “AGUAACUAUCACGAAAGUGAUAGUUACACAAGUGAAUAAACAUGAGGAUCACCCAUGUCCUCAUUUGCUCGUUUUAU [Sensor 3 - 17] (puzzle: Sensor v3, turn-off variant 2)”: 486 nM, 553 nM and 400 nM.
As to “AGUAACUAUCACGAAAGUGAUAGUUACAGCAAGUGAUAAACAUGAGGAUCACCCAUGUCCUCAUUUGCUCGUCUUAU [Sensor 3 - 12] (Eterna round: R96, puzzle: Sensor v3, turn-off variant 2)”, the “apparent KD of MS2 coat protein” value (input ligand: FMN 200 uM) was determined as 15 nM, the “apparent KD of MS2 coat protein” value under setting [1] turned out to be 386 nM and the “apparent KD of MS2 coat protein” value (input ligand: none) came to 17.2 nM.
On to “AGUAACUAUCACGAAAGUGAUAGUUACAGCAAGUGAUAAACAUGAGGAUCACCCAUGUCCUCAUUUGCUCGUCUUAU [Sensor 3 - 12] (puzzle: Sensor v3, turn-off variant 2)”, for which the “apparent KD of MS2 coat protein” value is, setting by setting: under setting [3], 15.1 nM; under setting [2], 739 nM; under setting [4], 12.7 nM.
On to “AGUAACUCAUGAGGAUAUCACAUGAGGAUCACCCAUGUAUAGCGCGCUAUGCUAGUCCUCGUAUAUGAGAAGGUAUGAUAAAUG [JL ViennaUCT Quve mod 3] (Eterna round: R96, puzzle: Exclusion NG 2)”, for which the “apparent KD of MS2 coat protein” value (input ligand: FMN 200 uM) worked out at 22 nM, the “apparent KD of MS2 coat protein” value under setting [1] was found to be 15.7 nM and the “apparent KD of MS2 coat protein” value (input ligand: none) is 25.7 nM.
“AGUACAUACACGAAAGUGUAUGUACAAUAAGCUUGUGGAACAUGAGGAUCACCCAUGUCCUCAUAAGCUCGUCUUAU [Mat - Sensor v3 - Turn-off var 2 - D30] (puzzle: Sensor v3, turn-off variant 2)”: the “apparent KD of MS2 coat protein” value under setting [3] turned out to be 16.5 nM, the “apparent KD of MS2 coat protein” value under setting [2] was found to be 71.4 nM and the “apparent KD of MS2 coat protein” value under setting [4] was 15.5 nM.
Take “AGUACUAACACGAAAGUGUUAGUACAAUAAGCUAGUGGAACAUGAGGAUCACCCAUGUCCUCAUUAGCUCGUCUUGU [Mat - Sensor v3 - Turn-off var 2 - D39] (puzzle: Sensor v3, turn-off variant 2)”: the “apparent KD of MS2 coat protein” value by setting is: under setting [3], 16.2 nM; under setting [2], 34.8 nM; under setting [4], 12.5 nM.
For the sequence “AGUACUAACACGAAAGUGUUAGUACAAUAAGCUUGUGAAACAUGAGGAUCACCCAUGUCCUCAUAAGCUCGUCUUAA [salish99_TOv2_r3_002] (puzzle: Sensor v3, turn-off variant 2)”, the “apparent KD of MS2 coat protein” value reads like this: under setting [3], 12.9 nM; under setting [2], 379 nM; under setting [4], 10.8 nM.
The matching figures for “AGUACUAACACGAAAGUGUUAGUACAAUAAGCUUGUGAAACAUGAGGAUCACCCAUGUCCUCAUAAGCUCGUCUUGU [salish99_TOv2_r3_009] (puzzle: Sensor v3, turn-off variant 2)”: 15.2 nM, 353 nM and 13.7 nM.
For the sequence “AGUACUAACACGAAAGUGUUAGUACAAUAAGCUUGUGGAACAUGAGGAUCACCCAUGUCCUCAUAAGCUCGUCUUAG [Mat - Sensor v3 - Turn-off var 2 - D26] (puzzle: Sensor v3, turn-off variant 2)”, the “apparent KD of MS2 coat protein” value under setting [3] was 15.9 nM, the “apparent KD of MS2 coat protein” value under setting [2] was found to be 62.3 nM and the “apparent KD of MS2 coat protein” value under setting [4] came out at 13 nM.
In the case of “AGUACUAACACGAGAGUGUUAGUACAAUAAGCUUGUGAAACAUGAGGAUCACCCAUGUCCUCAUAAGCUCGUCUUAU [salish99_TOv2_r3_029] (Eterna round: R96, puzzle: Sensor v3, turn-off variant 2)”, the “apparent KD of MS2 coat protein” value (input ligand: FMN 200 uM) came out at 15.3 nM, the “apparent KD of MS2 coat protein” value under setting [1] was 467 nM and the “apparent KD of MS2 coat protein” value (input ligand: none) turned out to be 18.1 nM.
Turning to “AGUACUAACACGAGAGUGUUAGUACAAUAAGCUUGUGAAACAUGAGGAUCACCCAUGUCCUCAUAAGCUCGUCUUAU [salish99_TOv2_r3_029] (puzzle: Sensor v3, turn-off variant 2)”, the “apparent KD of MS2 coat protein” value runs as follows: under setting [3], 18.1 nM; under setting [2], 949 nM; under setting [4], 17.2 nM.
With “AGUACUAACACGCAUGUGUUAGUACAAUAAGCUUGUGAAACAUGAGGAUCACCCAUGUCCUCAUAAGCUCGUCUUAU [salish99_TOv2_r3_068] (Eterna round: R96, puzzle: Sensor v3, turn-off variant 2)”, the “apparent KD of MS2 coat protein” value came out at 14.8 nM (input ligand: FMN 200 uM), 415 nM under setting [1] and 17.2 nM (input ligand: none).
As for “AGUACUAACACGCAUGUGUUAGUACAAUAAGCUUGUGAAACAUGAGGAUCACCCAUGUCCUCAUAAGCUCGUCUUAU [salish99_TOv2_r3_068] (puzzle: Sensor v3, turn-off variant 2)”, the “apparent KD of MS2 coat protein” value is, setting by setting: under setting [3], 17.6 nM; under setting [2], 411 nM; under setting [4], 16.1 nM.
The matching figures for “AGUACUAACACGUCAGUGUUAGUACAAUAAGCUUGUGAAACAUGAGGAUCACCCAUGUCCUCAUAAGCUCGUCUUAU [salish99_TOv2_r3_062] (puzzle: Sensor v3, turn-off variant 2)”: 17.3 nM, 602 nM and 16.1 nM.
The matching figures for “AGUACUAUCACGAAAGUGAUAGUACAAAAUAGCAAGUGAACAUGAGGAUCACCCAUGUCCUCAUUUGCUCGUCUUAU [Sensor 3 - 19] (puzzle: Sensor v3, turn-off variant 2)”: 15.1 nM, 426 nM and 14.2 nM.
